Reference: PMC2680606 (Biochemistry, 2009)

Molecular target: Myc-UbcM2-His6 (mouse, UniProt P52483 1-207)
Test: pull-down

Myc-UbcM2-His6, sequence (P52483 whole entry): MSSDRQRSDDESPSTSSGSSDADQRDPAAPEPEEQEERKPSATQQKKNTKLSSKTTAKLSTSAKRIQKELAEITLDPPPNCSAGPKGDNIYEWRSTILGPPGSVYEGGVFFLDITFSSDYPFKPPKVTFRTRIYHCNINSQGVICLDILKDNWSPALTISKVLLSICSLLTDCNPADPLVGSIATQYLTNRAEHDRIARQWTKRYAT

fold binding against full-length RCBTB1: 2 fold
B1: ^35S-RCBTB1 fragment: BTB domain and C-terminal 87 residues (domain or fragment, human, UniProt Q8NDN9 360-531, looked up)
chain: LKKEFDSPETADLKFRIDGKYIHVHKAVLKIRCEHFRSMFQSYWNEDMKEVIEIDQFSYPVYRAFLQYLYTDTVDLPPEDAIGLLDLATSYCENRLKKLCQHIIKRGITVENAFSLFSAAVRYDAEDLEEFCFKFCINHLTEVTQTAAFWQMDGPLLKEFIAKASKCGAFKN
modifications: 35S-labelled methionine and cysteine
